Results on five molecules are retold here after patent US20260021140A1 (SCG CELL THERAPY PTE, published 2026).

In assay [1] the target is T1, HBV surface antigen (HBsAg), S20-28, genotypes B and C peptide on HLA-A*02:01 (human).
T1 peptide: FLLTKILTI
Description: cytokine release.

Assay [2] concerns the target S20 epitope peptide presented by HLA-A*02:01 on HepG2 cells (Hepatitis B virus, genotypes A and D; …). In words: cell-based or functional assay.

B1: B01 TCR (TCR, V domains shown)
Valpha: QELEQSPQSLIVQEGKNLTINCTSSKTLYGLYWYKQKYGEGLIFLMMLQKGGEEKSHEKITAKLDEKKQQSSLHITASQPSHAGIYLCGADTSTDKLIFGTGTRLQVFP
Vbeta: GVTQTPRYLIKTRGQQVTLSCSPISGHRSVSWYQQTPGQGLQFLFEYFSETQRNKGNFPGRFSGRQFSNSRSEMNVSTLELGDSALYLCASSHGGAYEQYFGPGTRLTVT
On to B1, for which, in assay [1], the binding result is given as “recognises”.

B2: A01 TCR (TCR, V domains shown)
Valpha: QQGEEDPQALSIQEGENATMNCSYKTSINNLQWYRQNSGRGLVHLILIRSNEREKHSGRLRVTLDTSKKSSSLLITASRAADTASYFCATDERDDMRFGAGTRLTVKP
Vbeta: GVIQSPRHEVTEMGQEVTLRCKPISGHDYLFWYRQTMMRGLELLIYFNNNVPIDDSGMPEDRFSAKMPNASFSTLKIQPSEPRDSAVYFCASSLNTEAFFGQGTRLTVV
On to B2, for which the binding result in assay [1] is on record as “recognises”.

B3: C01 TCR (TCR, V domains shown)
Valpha: QQGEEDPQALSIQEGENATMNCSYKTSINNLQWYRQNSGRGLVHLILIRSNEREKHSGRLRVTLDTSKKSSSLLITASRAADTASYFCATDAYGQNFVFGPGTRLSVLP
Vbeta: GVIQSPRHEVTEMGQEVTLRCKPISGHDYLFWYRQTMMRGLELLIYFNNNVPIDDSGMPEDRFSAKMPNASFSTLKIQPSEPRDSAVYFCASGSNTEAFFGQGTRLTVV
As for B3, in assay [1], the binding result was “recognises”.

B4: C01 TCR (HBV S20 TCR, modified, expressed on C01 TCR-T cells) (TCR, V domains shown)
V domain 1: SQQGEEDPQALSIQEGENATMNCSYKTSINNLQWYRQNSGRGLVHLILIRSNEREKHSGRLRVTLDTSKKSSSLLITASRAADTASYFCATDAYGQNFVFGPGTRLSVLP
V domain 2: GVIQSPRHEVTEMGQEVTLRCKPISGHDYLFWYRQTMMRGLELLIYFNNNVPIDDSGMPEDRFSAKMPNASFSTLKIQPSEPRDSAVYFCASGSNTEAFFGQGTRLTVVE
On to B4, for which the “killing ratio on HepG2-LMS-LG cells (RTCA, 48 h, E:T 2:1, 1:2, 1:8)” value in assay [2] was more than 60%.

B5: B01 TCR (HBV S20 TCR, modified, expressed on B01 TCR-T cells) (TCR, V domains shown)
V domain 1: SQELEQSPQSLIVQEGKNLTINCTSSKTLYGLYWYKQKYGEGLIFLMMLQKGGEEKSHEKITAKLDEKKQQSSLHITASQPSHAGIYLCGADTSTDKLIFGTGTRLQVFP
V domain 2: KAGVTQTPRYLIKTRGQQVTLSCSPISGHRSVSWYQQTPGQGLQFLFEYFSETQRNKGNFPGRFSGRQFSNSRSEMNVSTLELGDSALYLCASSHGGAYEQYFGPGTRLTVTE
As to B5, the “killing ratio on HepG2-LMS-LG cells (RTCA, 48 h, E:T 2:1, 1:2, 1:8)” value in assay [2] is more than 60%.
